Patent US20250163127A1 (published 2025)

Experiments:
CD28 = CD28 (human, UniProt P10747); assay: cell-based or functional assay
PD-1 [1] = target: T1, PD-1 (human, UniProt Q15116); assay: cell-based or functional assay
CD2 [2] = target: CD2 (Homo sapiens (Human), UniProt P06729); assay: flow cytometry, CHO-CD2 cells
human PD-1 = human PD-1 (human, UniProt Q15116); assay: flow cytometry, Jurkat/IL-2/PD-1 cells
CD2 [3] = target: CD2 (human, UniProt P06729); assay: cell-based or functional assay
PD-1 [4] = target: T1, PD-1; assay: cell-based or functional assay; remark: listed apart in the source

| Binder | % CD25 Hi FoxP3 + (CD28) | % CD25 Hi FoxP3 + (PD-1 [1]) | also measured |
| --- | --- | --- | --- |
| PD-L1 303-ICOSL 2264-ICOSL 2264-PD-L1 303 (other) FTVTVPKDLYVVEYGSNMTIECKFPVEKQLDLAALIVYWEMEGKDIIQFVHGEEDQKAQHSSYRQRARLLKDQLSLGNAALQITDVKLQDAGVYRCMISYGGGADYKRITVKVNAGGGGSGGGGSGGGGSDTQEKEVRAMVGSDVELSCACPEGSRFDLNDVYVYWQTSESKTVVTYHIPQHSSLEYVDSRYRNRALMSPAGMLRGDFSLRLFNVTPQDEQKFHCLVLSRSLGFQEVLSVEVTLHVAANFSVGGGGSGGGGSGGGGSDTQEKEVRAMVGSDVELSCACPEGSRFDLNDVYVYWQTSESKTVVTYHIPQHSSLEYVDSRYRNRALMSPAGMLRGDFSLRLFNVTPQDEQKFHCLVLSRSLGFQEVLSVEVTLHVAANFSVGSGGSGGGGSGGGGSFTVTVPKDLYVVEYGSNMTIECKFPVEKQLDLAALIVYWEMEGKDIIQFVHGEEDQKAQHSSYRQRARLLKDQLSLGNAALQITDVKLQDAGVYRCMISYGGGADYKRITVKVNADYKDDDDKHHHHHH | 0.89 % at 100 nM | 0.89 % at 100 nM |  |
| CD58 3650-PD-L1 303-PD-L1 303-CD58 3650 (other) SQQIYGVVYGNVTFHVPSNVPLKEVLWKKQKDKVAELENSEFRAFSSFKNRVYLDTVSGSLTIYNLTSSDEDEYEMESPNITDTMKFFLYVLESGGGGSGGGGSGGGGSFTVTVPKDLYVVEYGSNMTIECKFPVEKQLDLAALIVYWEMEGKDIIQFVHGEEDQKAQHSSYRQRARLLKDQLSLGNAALQITDVKLQDAGVYRCMISYGGGADYKRITVKVNAGGGGSGGGGSGGGGSFTVTVPKDLYVVEYGSNMTIECKFPVEKQLDLAALIVYWEMEGKDIIQFVHGEEDQKAQHSSYRQRARLLKDQLSLGNAALQITDVKLQDAGVYRCMISYGGGADYKRITVKVNAGSGGSGGGGSGGGGSSQQIYGVVYGNVTFHVPSNVPLKEVLWKKQKDKVAELENSEFRAFSSFKNRVYLDTVSGSLTIYNLTSSDEDEYEMESPNITDTMKFFLYVLESGSGGGGSDYKDDDDKHHHHHH |  |  | EC50 (CD2 [2]): 14.4 nM; EC50 (human PD-1): 6.6 nM |
| PD-L1 303-ICOSL 2264 (SEQ ID NO 3496) (other) FTVTVPKDLYVVEYGSNMTIECKFPVEKQLDLAALIVYWEMEGKDIIQFVHGEEDQKAQHSSYRQRARLLKDQLSLGNAALQITDVKLQDAGVYRCMISYGGGADYKRITVKVNAGSGGSGGGGSGGGGSDTQEKEVRAMVGSDVELSCACPEGSRFDLNDVYVYWQTSESKTVVTYHIPQHSSLEYVDSRYRNRALMSPAGMLRGDFSLRLFNVTPQDEQKFHCLVLSRSLGFQEVLSVEVTLHVAANFSVDYKDDDDKHHHHHH | 21.7 % at 100 nM | 21.7 % at 100 nM |  |
| PD-L1 303-ICOSL 2264-Fc + Fc (Fc fusion) chain 1: FTVTVPKDLYVVEYGSNMTIECKFPVEKQLDLAALIVYWEMEGKDIIQFVHGEEDQKAQHSSYRQRARLLKDQLSLGNAALQITDVKLQDAGVYRCMISYGGGADYKRITVKVNAGSGGGSGGGGSGGGGSDTQEKEVRAMVGSDVELSCACPEGSRFDLNDVYVYWQTSESKTVVTYHIPQHSSLEYVDSRYRNRALMSPAGMLRGDFSLRLFNVTPQDEQKFHCLVLSRSLGFQEVLSVEVTLHVAANFSVGGGGSGSGGGGSEPKSSDKTHTCPPCPAPEAEGAPSVFLFPPKPKDTLMISRTPEVTCVVVDVSHEDPEVKFNWYVDGVEVHNAKTKPREEQYNSTYRVVSVLTVLHQDWLNGKEYKCKVSNKALPAPIEKTISKAKGQPREPQVYTLPPCREEMTKNQVSLWCLVKGFYPSDIAVEWESNGQPENNYKTTPPVLDSDGSFFLYSKLTVDKSRWQQGNVFSCSVMHEALHNHYTQKSLSLSPGK chain 2: HMSSVSAQAAAEPKSSDKTHTCPPCPAPEAEGAPSVFLFPPKPKDTLMISRTPEVTCVVVDVSHEDPEVKFNWYVDGVEVHNAKTKPREEQYNSTYRVVSVLTVLHQDWLNGKEYKCKVSNKALPAPIEKTISKAKGQPREPQVCTLPPSREEMTKNQVSLSCAVKGFYPSDIAVEWESNGQPENNYKTTPPVLDSDGSFFLYSKLTVDKSRWQQGNVFSCSVMHEALHNHYTQKSLSLSPGK | 29.8 % at 100 nM | 29.8 % at 100 nM |  |
| CD58 3650-PD-L1 303-Fc (Fc fusion) SQQIYGVVYGNVTFHVPSNVPLKEVLWKKQKDKVAELENSEFRAFSSFKNRVYLDTVSGSLTIYNLTSSDEDEYEMESPNITDTMKFFLYVLESGGGGSGGGGSGGGGSFTVTVPKDLYVVEYGSNMTIECKFPVEKQLDLAALIVYWEMEGKDIIQFVHGEEDQKAQHSSYRQRARLLKDQLSLGNAALQITDVKLQDAGVYRCMISYGGGADYKRITVKVNAGSGGGGSEPKSSDKTHTCPPCPAPEAEGAPSVFLFPPKPKDTLMISRTPEVTCVVVDVSHEDPEVKFNWYVDGVEVHNAKTKPREEQYNSTYRVVSVLTVLHQDWLNGKEYKCKVSNKALPAPIEKTISKAKGQPREPQVYTLPPSRDELTKNQVSLTCLVKGFYPSDIAVEWESNGQPENNYKTTPPVLDSDGSFFLYSKLTVDKSRWQQGNVFSCSVMHEALHNHYTQKSLSLSPG |  |  | 100 nM IFN-gamma (pg/mL), SEB assay (CD2 [3]): 5440 pg/mL; 100 nM IFN-gamma (pg/mL), SEB assay (PD-1 [4]): 5440 pg/mL |
| PD-L1 303-PD-L1 303-ICOSL 2264-ICOSL 2264 (other) FTVTVPKDLYVVEYGSNMTIECKFPVEKQLDLAALIVYWEMEGKDIIQFVHGEEDQKAQHSSYRQRARLLKDQLSLGNAALQITDVKLQDAGVYRCMISYGGGADYKRITVKVNAGGGGSGGGGSGGGGSFTVTVPKDLYVVEYGSNMTIECKFPVEKQLDLAALIVYWEMEGKDIIQFVHGEEDQKAQHSSYRQRARLLKDQLSLGNAALQITDVKLQDAGVYRCMISYGGGADYKRITVKVNAGGGGSGGGGSGGGGSDTQEKEVRAMVGSDVELSCACPEGSRFDLNDVYVYWQTSESKTVVTYHIPQHSSLEYVDSRYRNRALMSPAGMLRGDFSLRLFNVTPQDEQKFHCLVLSRSLGFQEVLSVEVTLHVAANFSVGSGGSGGGGSGGGGSDTQEKEVRAMVGSDVELSCACPEGSRFDLNDVYVYWQTSESKTVVTYHIPQHSSLEYVDSRYRNRALMSPAGMLRGDFSLRLFNVTPQDEQKFHCLVLSRSLGFQEVLSVEVTLHVAANFSVDYKDDDDKHHHHHH | 4.28 % at 100 nM | 4.28 % at 100 nM |  |
| PD-L1 303-ICOSL 2264-COMP (other) FTVTVPKDLYVVEYGSNMTIECKFPVEKQLDLAALIVYWEMEGKDIIQFVHGEEDQKAQHSSYRQRARLLKDQLSLGNAALQITDVKLQDAGVYRCMISYGGGADYKRITVKVNAGGGGSGGGGSGGGGSDTQEKEVRAMVGSDVELSCACPEGSRFDLNDVYVYWQTSESKTVVTYHIPQHSSLEYVDSRYRNRALMSPAGMLRGDFSLRLFNVTPQDEQKFHCLVLSRSLGFQEVLSVEVTLHVAANFSVGGGGSGGGGSGGGGSDLGPQMLRELQETNAALQDVRELLRQQVREITFLKNTVMECDACGDYKDDDDKHHHHHH | 21 % at 100 nM | 21 % at 100 nM |  |
| PD-L1 303-PD-L1 303-CD58 3650-CD58 3650 (other) FTVTVPKDLYVVEYGSNMTIECKFPVEKQLDLAALIVYWEMEGKDIIQFVHGEEDQKAQHSSYRQRARLLKDQLSLGNAALQITDVKLQDAGVYRCMISYGGGADYKRITVKVNAGGGGSGGGGSGGGGSFTVTVPKDLYVVEYGSNMTIECKFPVEKQLDLAALIVYWEMEGKDIIQFVHGEEDQKAQHSSYRQRARLLKDQLSLGNAALQITDVKLQDAGVYRCMISYGGGADYKRITVKVNAGGGGSGGGGSGGGGSSQQIYGVVYGNVTFHVPSNVPLKEVLWKKQKDKVAELENSEFRAFSSFKNRVYLDTVSGSLTIYNLTSSDEDEYEMESPNITDTMKFFLYVLESGSGGSGGGGSGGGGSSQQIYGVVYGNVTFHVPSNVPLKEVLWKKQKDKVAELENSEFRAFSSFKNRVYLDTVSGSLTIYNLTSSDEDEYEMESPNITDTMKFFLYVLESGSGGGGSDYKDDDDKHHHHHH |  |  | 100 nM IFN-gamma (pg/mL), SEB assay (CD2 [3]): 8620 pg/mL; 100 nM IFN-gamma (pg/mL), SEB assay (PD-1 [4]): 8620 pg/mL |
| PD-L1 303-CD58 3650-Fc (Fc fusion) FTVTVPKDLYVVEYGSNMTIECKFPVEKQLDLAALIVYWEMEGKDIIQFVHGEEDQKAQHSSYRQRARLLKDQLSLGNAALQITDVKLQDAGVYRCMISYGGGADYKRITVKVNAGGGGSGGGGSGGGGSSQQIYGVVYGNVTFHVPSNVPLKEVLWKKQKDKVAELENSEFRAFSSFKNRVYLDTVSGSLTIYNLTSSDEDEYEMESPNITDTMKFFLYVLESGSGGGGSEPKSSDKTHTCPPCPAPEAEGAPSVFLFPPKPKDTLMISRTPEVTCVVVDVSHEDPEVKFNWYVDGVEVHNAKTKPREEQYNSTYRVVSVLTVLHQDWLNGKEYKCKVSNKALPAPIEKTISKAKGQPREPQVYTLPPSRDELTKNQVSLTCLVKGFYPSDIAVEWESNGQPENNYKTTPPVLDSDGSFFLYSKLTVDKSRWQQGNVFSCSVMHEALHNHYTQKSLSLSPG |  |  | 100 nM IFN-gamma (pg/mL), SEB assay (CD2 [3]): 9820 pg/mL; 100 nM IFN-gamma (pg/mL), SEB assay (PD-1 [4]): 9820 pg/mL |
| PD-L1 303-ICOSL 2264-Fc (Fc fusion) FTVTVPKDLYVVEYGSNMTIECKFPVEKQLDLAALIVYWEMEGKDIIQFVHGEEDQKAQHSSYRQRARLLKDQLSLGNAALQITDVKLQDAGVYRCMISYGGGADYKRITVKVNAGSGGSGGGGSGGGGSDTQEKEVRAMVGSDVELSCACPEGSRFDLNDVYVYWQTSESKTVVTYHIPQHSSLEYVDSRYRNRALMSPAGMLRGDFSLRLFNVTPQDEQKFHCLVLSRSLGFQEVLSVEVTLHVAANFSVGGGGSGSGGGGSEPKSSDKTHTCPPCPAPEAEGAPSVFLFPPKPKDTLMISRTPEVTCVVVDVSHEDPEVKFNWYVDGVEVHNAKTKPREEQYNSTYRVVSVLTVLHQDWLNGKEYKCKVSNKALPAPIEKTISKAKGQPREPQVYTLPPSRDELTKNQVSLTCLVKGFYPSDIAVEWESNGQPENNYKTTPPVLDSDGSFFLYSKLTVDKSRWQQGNVFSCSVMHEALHNHYTQKSLSLSPG | 6.6 % at 100 nM | 6.6 % at 100 nM |  |
| PD-L1 303-ICOSL 2264-PD-L1 303 (other) FTVTVPKDLYVVEYGSNMTIECKFPVEKQLDLAALIVYWEMEGKDIIQFVHGEEDQKAQHSSYRQRARLLKDQLSLGNAALQITDVKLQDAGVYRCMISYGGGADYKRITVKVNAGGGGSGGGGSGGGGSDTQEKEVRAMVGSDVELSCACPEGSRFDLNDVYVYWQTSESKTVVTYHIPQHSSLEYVDSRYRNRALMSPAGMLRGDFSLRLFNVTPQDEQKFHCLVLSRSLGFQEVLSVEVTLHVAANFSVGGGGSGGGGSGGGGSFTVTVPKDLYVVEYGSNMTIECKFPVEKQLDLAALIVYWEMEGKDIIQFVHGEEDQKAQHSSYRQRARLLKDQLSLGNAALQITDVKLQDAGVYRCMISYGGGADYKRITVKVNADYKDDDDKHHHHHH | 23.2 % at 100 nM | 23.2 % at 100 nM |  |
